What was measured:
Test in all cases: co-IP, anti-FLAG, lysate of cells with C-FLAG B3GNT2; mass spectrometry
[1] = target: RPS3 (human, UniProt P23396 2-243)
Method: (§1) Cells were plated in 10-cm cell culture dishes and grown to 60-80% confluency. For each condition, two biological replicates were harvested for co-IP. Cells were washed with PBS and 4 mL of lysis buffer (20 mM HEPES, 1% Triton X-100, 150 mM NaCl, 1 mM EDTA, and 10% glycerol) containing protease inhibitor cocktail was added. Cells were scraped and lysate was incubated at 4° C. under rotary agitation for 1 h. Lysate was centrifuged at 14,000×g for 10 min at 4° C. Supernatant was transferred to a new tube and an aliquot was taken as the input. […] For Western blots, 10 μg/mL Chicken Anti-FLAG (Aves labs ET-DY100) and IgY control (R&D Systems AB-101-C) antibodies were biotinylated (Thermo Fisher Scientific 90407) and added to the respective conditions. Lysates with antibodies were incubated at 4° C. under rotary agitation overnight. For each mL of lysate, 50 μL of Pierce Protein A/G Magnetic Beads (Mass spectrometry; Thermo Fisher Scientific 88803) or Pierce Streptavidin Magnetic Beads (Western blot; Thermo Fisher Scientific 88817) was washed twice with lysis buffer. Lysates with antibodies were added to the beads and incubated at 4° C. under rotary agitation for 4 h. Beads were washed with lysis buffer 3 times and resuspended in lysis buffer for storage.
(§2) Magnetic beads were resuspended in 100 mM Tris pH 7.8, reduced, alkylated and digested with trypsin at 37° ° C. overnight. This solution was subjected to solid phase extraction to concentrate the peptides and remove unwanted reagents followed by injection onto a Shimadzu HPLC with fraction collector. Eight fractions were collected and after concentration were injected on a Waters NanoAcquity HPLC equipped with a self-packed Aeris 3 μm C18 analytical column 0.075 mm by 20 cm, (Phenomenex). Peptides were eluted using standard reverse-phase gradients. The effluent from the column was analyzed using a Thermo Orbitrap Elite mass spectrometer (nanospray configuration) operated in a data dependent manner for 54 minutes. The resulting fragmentation spectra were correlated against the known database using Proteome Discover 1.4 (Thermo Fisher Scientific).

[2] = target: T1, DDX5 (human, UniProt P17844 1-614)
T1 construct: also called NP_001307526.1
T1 sequence (P17844 whole entry): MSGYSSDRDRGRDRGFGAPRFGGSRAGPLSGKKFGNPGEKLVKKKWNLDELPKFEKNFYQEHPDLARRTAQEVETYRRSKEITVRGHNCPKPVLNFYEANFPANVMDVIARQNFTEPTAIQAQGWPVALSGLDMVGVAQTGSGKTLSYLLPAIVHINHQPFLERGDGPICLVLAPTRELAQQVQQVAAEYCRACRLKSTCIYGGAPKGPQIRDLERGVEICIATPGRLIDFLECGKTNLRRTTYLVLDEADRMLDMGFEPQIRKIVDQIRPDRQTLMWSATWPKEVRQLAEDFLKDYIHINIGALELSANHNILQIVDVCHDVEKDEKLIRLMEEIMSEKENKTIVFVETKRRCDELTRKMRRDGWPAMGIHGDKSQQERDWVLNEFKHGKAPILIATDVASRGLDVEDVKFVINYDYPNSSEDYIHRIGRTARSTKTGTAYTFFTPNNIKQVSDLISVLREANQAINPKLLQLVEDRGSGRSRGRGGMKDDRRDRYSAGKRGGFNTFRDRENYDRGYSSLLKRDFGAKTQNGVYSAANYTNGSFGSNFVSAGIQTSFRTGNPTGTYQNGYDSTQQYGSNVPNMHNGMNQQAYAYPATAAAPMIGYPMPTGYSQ
Method: as §1, §2

[3] = target: T2, SAMM50 (human, UniProt Q9Y512 1-469)
T2 construct: also called NP_056195.3
T2 sequence (looked up): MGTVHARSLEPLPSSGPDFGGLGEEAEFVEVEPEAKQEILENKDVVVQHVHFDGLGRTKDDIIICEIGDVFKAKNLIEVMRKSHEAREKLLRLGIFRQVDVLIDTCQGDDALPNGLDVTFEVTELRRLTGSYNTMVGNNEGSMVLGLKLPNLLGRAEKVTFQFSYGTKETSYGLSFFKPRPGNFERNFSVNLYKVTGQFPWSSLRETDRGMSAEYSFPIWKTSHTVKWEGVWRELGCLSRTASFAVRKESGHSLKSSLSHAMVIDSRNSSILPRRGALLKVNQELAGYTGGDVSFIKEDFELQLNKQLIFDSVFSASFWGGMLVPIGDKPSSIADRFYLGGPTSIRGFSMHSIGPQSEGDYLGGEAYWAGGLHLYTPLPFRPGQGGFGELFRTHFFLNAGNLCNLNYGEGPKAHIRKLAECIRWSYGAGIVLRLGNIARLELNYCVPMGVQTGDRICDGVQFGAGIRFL
Method: as §1, §2

[4] = target: T3, G3BP1 (human, UniProt Q13283 2-466)
T3 construct: also called NP_005745.1
T3 sequence (Q13283 2-466 limits assumed): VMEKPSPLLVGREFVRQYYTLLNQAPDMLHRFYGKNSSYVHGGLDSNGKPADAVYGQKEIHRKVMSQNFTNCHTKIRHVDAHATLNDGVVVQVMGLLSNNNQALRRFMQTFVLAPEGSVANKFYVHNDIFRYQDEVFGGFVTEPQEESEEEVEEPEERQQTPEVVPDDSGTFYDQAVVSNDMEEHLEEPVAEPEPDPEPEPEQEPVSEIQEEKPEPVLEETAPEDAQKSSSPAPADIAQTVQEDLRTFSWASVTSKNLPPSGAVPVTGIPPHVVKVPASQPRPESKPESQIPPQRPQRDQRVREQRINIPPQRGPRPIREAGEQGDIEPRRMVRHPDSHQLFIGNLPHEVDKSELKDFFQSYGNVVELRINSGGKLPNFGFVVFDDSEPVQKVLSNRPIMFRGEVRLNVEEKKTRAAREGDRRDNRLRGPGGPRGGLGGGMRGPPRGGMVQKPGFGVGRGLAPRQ
Method: as §1, §2

[5] = target: T4, HNRNPK (human, UniProt P61978-3 1-440, limits assumed)
T4 construct: also called NP_001305115.1 (+1)
T4 sequence (P61978 other isoform, or with tags, fused parts or gaps limits assumed): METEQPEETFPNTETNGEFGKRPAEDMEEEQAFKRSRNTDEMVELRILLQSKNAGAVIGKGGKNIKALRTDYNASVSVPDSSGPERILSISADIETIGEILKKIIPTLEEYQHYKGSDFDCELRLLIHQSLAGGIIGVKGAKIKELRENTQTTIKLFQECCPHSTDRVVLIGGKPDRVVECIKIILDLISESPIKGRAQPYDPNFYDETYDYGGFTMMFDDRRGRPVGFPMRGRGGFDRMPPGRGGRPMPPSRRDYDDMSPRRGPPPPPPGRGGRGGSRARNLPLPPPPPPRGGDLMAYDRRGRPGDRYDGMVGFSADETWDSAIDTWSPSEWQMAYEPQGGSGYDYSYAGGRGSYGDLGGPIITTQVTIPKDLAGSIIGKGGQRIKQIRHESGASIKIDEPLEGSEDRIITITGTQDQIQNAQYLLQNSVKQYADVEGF
Method: as §1, §2

[6] = target: T5, RBM39 (human, UniProt Q14498-3 2-508, limits assumed)
T5 construct: also called NP_001310351.1 (+3)
T5 sequence (looked up): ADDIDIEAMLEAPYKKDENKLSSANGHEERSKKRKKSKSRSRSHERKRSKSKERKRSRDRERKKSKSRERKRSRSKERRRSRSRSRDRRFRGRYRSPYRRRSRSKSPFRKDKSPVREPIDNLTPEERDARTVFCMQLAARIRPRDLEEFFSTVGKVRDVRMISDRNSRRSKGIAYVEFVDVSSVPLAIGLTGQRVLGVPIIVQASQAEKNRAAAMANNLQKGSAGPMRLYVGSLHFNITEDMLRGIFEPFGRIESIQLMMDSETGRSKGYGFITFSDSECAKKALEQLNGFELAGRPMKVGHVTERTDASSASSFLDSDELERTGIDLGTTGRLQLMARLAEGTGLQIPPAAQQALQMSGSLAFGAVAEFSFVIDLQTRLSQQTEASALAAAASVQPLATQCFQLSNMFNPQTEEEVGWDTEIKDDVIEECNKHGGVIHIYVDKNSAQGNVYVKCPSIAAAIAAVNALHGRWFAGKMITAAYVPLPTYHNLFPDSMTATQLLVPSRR
Method: as §1, §2

[7] = target: T6, LMNA (human, UniProt P02545 1-646, limits assumed)
T6 construct: also called NP_733821.1
T6 sequence (looked up): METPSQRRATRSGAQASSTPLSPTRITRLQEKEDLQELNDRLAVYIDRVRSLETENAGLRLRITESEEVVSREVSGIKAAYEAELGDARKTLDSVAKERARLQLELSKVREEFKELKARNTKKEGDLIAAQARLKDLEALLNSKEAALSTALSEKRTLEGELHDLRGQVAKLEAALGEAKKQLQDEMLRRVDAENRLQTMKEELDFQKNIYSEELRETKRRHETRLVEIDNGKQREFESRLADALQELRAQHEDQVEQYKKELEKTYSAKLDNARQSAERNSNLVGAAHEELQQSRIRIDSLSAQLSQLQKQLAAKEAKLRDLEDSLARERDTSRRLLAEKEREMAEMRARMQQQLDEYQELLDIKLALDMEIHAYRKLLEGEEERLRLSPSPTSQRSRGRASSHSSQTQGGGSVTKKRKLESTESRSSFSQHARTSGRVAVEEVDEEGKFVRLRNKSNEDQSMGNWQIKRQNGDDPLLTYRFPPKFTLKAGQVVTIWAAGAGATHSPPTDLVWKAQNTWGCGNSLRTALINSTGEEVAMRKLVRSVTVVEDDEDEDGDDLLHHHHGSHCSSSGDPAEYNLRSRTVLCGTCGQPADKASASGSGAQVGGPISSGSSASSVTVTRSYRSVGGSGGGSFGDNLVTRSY
Method: as §1, §2

co-IP mass spectrometry count [1]: 23
co-IP mass spectrometry count [2]: 22
co-IP mass spectrometry count [3]: 0
co-IP mass spectrometry count [4]: 33
co-IP mass spectrometry count [5]: 12
co-IP mass spectrometry count [6]: 5
co-IP mass spectrometry count [7]: 22
B1: C-terminal FLAG tagged B3GNT2 (enzyme, human, UniProt Q9NY97 1-397, looked up)
chain: MSVGRRRIKLLGILMMANVFIYFIMEVSKSSSQEKNGKGEVIIPKEKFWKISTPPEAYWNREQEKLNRQYNPILSMLTNQTGEAGRLSNISHLNYCEPDLRVTSVVTGFNNLPDRFKDFLLYLRCRNYSLLIDQPDKCAKKPFLLLAIKSLTPHFARRQAIRESWGQESNAGNQTVVRVFLLGQTPPEDNHPDLSDMLKFESEKHQDILMWNYRDTFFNLSLKEVLFLRWVSTSCPDTEFVFKGDDDVFVNTHHILNYLNSLSKTKAKDLFIGDVIHNAGPHRDKKLKYYIPEVVYSGLYPPYAGGGGFLYSGHLALRLYHITDQVHLYPIDDVYTGMCLQKLGLVPEKHKGFRTFDIEEKNKNNICSYVDLMLVHSRKPQEMIDIWSQLQSAHLKC
notes: Overexpressed in cells and pulled down from the lysate with mouse anti-FLAG antibody; also called C-FLAG B3GNT2; C-term flag; not shown: C-terminal FLAG tag

Source: patent US20240261333A1 (published 2024)
